Source: publication PMC9124243 (Cell chemical biology, 2021)

B1: Mycobacterium tuberculosis DnaK T175A (catalytically dead mutant), full-length (natural protein)
chain: not shown

Experiments:
native gel or EMSA = molecular target: the molecule itself; test: native gel or EMSA
[1] = molecular target: B1; test: native gel or EMSA

B1
binding result (native gel or EMSA): binds

B2: Mycobacterium tuberculosis GrpE (natural protein)
chain: MTDGNQKPDGNSGEQVTVTDKRRIDPETGEVRHVPPGDMPGGTAAADAAHTEDKVAELTADLQRVQADFANYRKRALRDQQAAADRAKASVVSQLLGVLDDLERARKHGDLESGPLKSVADKLDSALTGLGLVAFGAEGEDFDPVLHEAVQHEGDGGQGSKPVIGTVMRQGYQLGEQVLRHALVGVVDTVVVDAAELESVDDGTAVADTAENDQADQGNSADTSGEQAESEPSGS
binding result [1]: binds
